# Assay results published in article PMC5348300 (Journal of the American Chemical Society, 2017).
# B1: coproheme decarboxylase (HemQ) from Geobacillus stearothermophilus (enzyme)
# chain: MSEAAQTLDGWYCLHDFRTIDWSAWKTLPNEEREAAISEFLALVDQWETTESEKQGSHAVYTIVGQKADILFMILRPTLDELHEIETALNKTKLADYLLPAYSYVSVVELSNYLASGSEDPYQIPEVRRRLYPILPKTNYICFYPMDKRRQGNDNWYMLSMEQRRELMRAHGMTGRKYAGKVTQIITGSVGLDDFEWGVTLFSDDALQFKKLVYEMRFDEVSARFGEFGSFFVGTRLPMENVSSFFHV
# Molecular target: the molecule itself
# Assay: crystal structure
protein,measurement,value
B1,stoichiometry N,5
